Test results taken from US12662531B2, “CLDN18.2 antibody and use thereof” (FUTUREGEN BIOPHARMACEUTICAL (BEIJING) CO., LTD., priority 2019, dated 2026).

What was measured:
[1] = test system: SNU601 cells expressing CLDN18.2; assay: Endocytosis of antibody after binding to SNU601 cells stably expressing CLDN18.2; assay type: cell-based; settings: 10 μg/ml, 4 h
Protocol: It has been reported that the binding of some antibodies to cell surface antigens can cause endocytosis of antigen and antibody complexes, thereby reducing the expression level of the cell surface antigens and accelerating antibody metabolism in vivo (Schrama D et al., 2006, Nat Rev Drug Discov). In this example, the ability of antibodies 18.2-A1, 18.2-A3, 18.2-A4 and 18.2-A6 to be endocytosed by cells was tested in SNU601 cells stably expressing CLDN18.2. […] Subsequently, they were washed at 4° C. and stained with PE-labeled anti-human IgG antibody. After fixation with 4% formalin, antibody binding on the cell surface was tested by flow cytometry.

control CT26 cell line = assay: Flow cytometry binding to control CT26 cell line; settings: results not shown
[2] = target: T1, CLDN18.2 (CLDN18.2-Flag 293t cells) (Homo sapiens, UniProt P56856); assay: Binding specificity, 293t cells expressing CLDN18.2-Flag, flow cytometry; settings: 10 μg/ml antibody, 4° C. 1 hour
T1 construct: expressed in transfected cells; host or cells: 293t cells, transient transfection
From the text: (§1) Human Claudin18 proteins include two homologues, i.e., CLDN18.1 and CLDN18.2, which share exons other than exon 1, and the exon 1 sequences of CLDN18.1 and CLDN18.2 are highly similar with only 8 different amino acids in the first extracellular region. The exon 1 of CLDN18.1 and the exon 1 of CLDN18.2 are specifically expressed in different tissues driven by different promoters. Among them, CLDN18.1 is specifically expressed in lung epithelial cells, while CLDN18.2 is specifically expressed in gastric epithelial cells. To identify the specificity of the screened CLDN18.2 antibodies, binding of the antibodies to CLDN18.1 and CLDN18.2 was tested.
(§2) Specifically, well-grown 293t cells were taken to transiently express flag-tagged CLDN18.1 (CLDN18.1-Flag) or CLDN18.2 (CLDN18.2-Flag). 48 hours after transfection, the cells were digested with trypsin. After washed with flow cytometry buffer, the cells were mixed with 10 μg/ml of isotype control antibody or one of the above five CLDN18.2 antibodies in 200 μl of flow cytometry buffer, and were incubated at 4° C. for 1 hour. Subsequently, the cells were washed once with flow cytometry buffer, PE-labeled anti-human IgG antibody was added, and incubated at 4° C. for 30 min. The supernatant was removed by centrifugation, wash was performed twice with flow cytometry buffer, and the cells were fixed in a fix solution containing 1% paraformaldehyde and 0.5% triton-X100 and the cell membrane was permeabilized. Subsequently, the cells were incubated with APC-labeled anti-flag antibody for 30 min and tested by flow cytometry.

[3] = target: T2, CLDN18.2 (CT26-CLDN18.2 cells) (Homo sapiens, UniProt P56856); assay: Flow cytometry binding of recombinant antibodies to CT26-CLDN18.2 cells; settings: 4° C. 1 hour
T2 construct: expressed in transfected cells; host or cells: CT26 cells (mouse), lentiviral transduction, puromycin selection
Protocol: Binding activities of the recombinant monoclonal antibodies to CLDN18.2 were determined. Specifically, well-grown cell lines stably expressing CT26-CLDN18.2 were taken. The cells were washed with PBS, mixed with the fold-diluted antibody and incubated at 4° C. for 1 hour. The cells were washed once with flow cytometry buffer, PE-labeled anti-human IgG antibody was added, and incubated at 4° C. for 30 minutes. The supernatant was removed by centrifugation, and after the cells were washed with flow cytometry buffer, the fluorescence intensity on the surface of the cells was tested by flow cytometry. The relative binding activity of each antibody was calculated using the average fluorescence intensity.
The binding activity of the defucosylated antibodies 18.2-A1F, 18.2-A3F and 18.2-A4F to CLDN18.2 as compared to the binding activity of 18.2-A1, 18.2-A3 and 18.2-A4 to CLDN18.2 was tested by flow cytometry, the method of which is as described in Example 5, and the experimental results are shown in FIG. 7.

[4] = target: T3, CLDN18.1 (CLDN18.1-Flag 293t cells) (Homo sapiens, UniProt P56856); assay: Binding specificity, 293t cells expressing CLDN18.1-Flag, flow cytometry; settings: 10 μg/ml antibody, 4° C. 1 hour
T3 construct: expressed in transfected cells; host or cells: 293t cells, transient transfection
From the text: as §1, §2

[5] = test system: untransfected Jurkat cells; assay: Flow cytometry binding to untransfected Jurkat cells; settings: results not shown
[6] = test system: human FcγRIIIa (V158) on FcγRIIIa-Jurkat cells; assay: Flow cytometry binding to FcγRIIIa-Jurkat cells
From the text: We next further tested the binding activity of the CLDN18.2 antibodies and their defucosylated forms to FcγRIIIa expressed on the cell surface. Specifically, the human FcγRIIIa (V158, high FC binding subtype) gene was cloned into a mammalian cell expression vector carrying a puromycin screening marker and transfected into a Jurkat cell line. A cell line stably expressing FcγRIIIa (FcγRIIIa-Jurkat) was screened with puromycin. In addition, NK92MI is a human NK cell line that naturally expresses the FcγRIIIa receptor (F158, low FC binding subtype). The binding ability of the CLDN18.2 antibodies and their defucosylated forms to FcγRIIIa expressed on the surface of FcγRIIIa-jurkat cells and NK92MI cells was tested by flow cytometry. The specific flow cytometry assay is described with reference to Example 6.

Row | Molecule | binding to CLDN18.2-flag transfected positive 293t cells [2] | binding to CT26 cell line expressing CLDN18.2 [3] | binding to CLDN18.1-positive cells [4] | binding to SNU601 cells expressing CLDN18.2 under 4° C. incubation [1] | antibody staining/binding on the cell surface under 37° C. incubation [1] | binding to control CT26 cell line (control CT26 cell line) | endocytosis by cells under 37° C. incubation [1] | binding to untransfected Jurkat cells [5] | binding to FcγRIIIa-jurkat cells [6]
1 | IMAB362: CLDN18.2 specific antibody (IMAB362, Ganymed) [reference compound] |  |  |  | bound well | decreased significantly |  |  |  | 
2 | 18.2-A2: recombinant monoclonal CLDN18.2 antibody, VH SEQ ID NO: 11, VL SEQ ID NO: 16 (antibody, V domains shown, 18.2-A2 VH; 18.2-A2 VL) VH: EVQLVQSGAEVKKPGASVKVSCKASGYTFTSFWVGWVRQAPGQGLEWIGNVSPSDSYTNYNQKFKDRATLTVDKSTSTAYMELSSLRSEDTAVYYCTRLSSGNSFDYWGQGTLVTVSS VL: DIVMTQSPDSLSVSLGERATINCKSSQSVLNSGNQKNYLTWYQQKPGQPPKLLIYWSSTKQSGVPDRFSGSGSGTDFTLTISSLQAEDVAVYYCQNAFSFPFTFGQGTKVEIK | able to bind well | able to bind well | none of the six antibodies bound |  |  | did not bind |  |  | 
3 | 18.2-A3: recombinant monoclonal CLDN18.2 antibody, VH SEQ ID NO: 21, VL SEQ ID NO: 26 (antibody, V domains shown, 18.2-A3 VH; 18.2-A3 VL) VH: EVQLVQSGAEVKKPGASVKVSCKASGYTFTSYWLNWVRQAPGQGLEWIGSMYPSDSYTNYNQKFKDRATLTVDKSTSTAYMELSSLRSEDTAVYYCTRFSRGNSFDYWGQGTLVTVSS VL: DIVMTQSPDSLTVALGERATINCKSSQSLLESGNQKNYLTWYQQKPGQPPKLLIYWSWAKNSGVPDRFSGSGSGTDFTLTISSLQAEDVAVYYCQNAYAFPFTFGQGTKVEIK | able to bind well | able to bind well | none of the six antibodies bound | bound well | still bound well | did not bind | did not undergo significant endocytosis |  | 

Second part, led by results:

Row | binding to CLDN18.2-flag transfected positive 293t cells [2] | binding to CT26 cell line expressing CLDN18.2 [3] | binding to CLDN18.1-positive cells [4] | Molecule | binding to SNU601 cells expressing CLDN18.2 under 4° C. incubation [1] | antibody staining/binding on the cell surface under 37° C. incubation [1] | binding to control CT26 cell line (control CT26 cell line) | endocytosis by cells under 37° C. incubation [1] | binding to untransfected Jurkat cells [5] | binding to FcγRIIIa-jurkat cells [6]
4 | able to bind well | able to bind well | none of the six antibodies bound | 18.2-A6: recombinant monoclonal CLDN18.2 antibody, VH SEQ ID NO: 55, VL SEQ ID NO: 60 (antibody, V domains shown, 18.2-A6 VH; 18.2-A6 VL) VH: EVQLVQSGAEVKKPGASVKVSCKASGYTFTSYWLGWVRQAPGQGLEWIGIIYPSDSYTNYNQKFKDRATLTVDKSTSTAYMELSSLRSEDTAVYYCTRFWRGNSFDYWGQGTLVTVSS VL: DIVMTQSPDSLTIGLGERATINCKSSQSLLNSGNQKNYLTWYQQKPGQPPKLLIYWAAGKESGVPDRFSGSGSGTDFTLTISSLQAEDVAVYYCQNGYSHPFTFGQGTKVEIK | bound well | still bound well | did not bind | did not undergo significant endocytosis |  | 
5 | able to bind well | able to bind well | none of the six antibodies bound | 18.2-A4: recombinant monoclonal CLDN18.2 antibody, VH SEQ ID NO: 31, VL SEQ ID NO: 36 (antibody, V domains shown, 18.2-A4 VH; 18.2-A4 VL) VH: EVQLVQSGAEVKKPGASVKVSCKASGYTFTSFWISWVRQAPGQGLEWIGNILPSDSYTNYNQKFKDRATLTVDKSTSTAYMELSSLRSEDTAVYYCTRYWRGNSFDYWGQGTLVTVSS VL: DIVMTQSPDSLALALGERATINCKSSQSIINSGNQKNYLTWYQQKPGQPPKLLIYWGGTRHSGVPDRFSGSGSGTDFTLTISSLQAEDVAVYYCQNGYYSPFTFGQGTKVEIK | bound well | still bound well | did not bind | did not undergo significant endocytosis | not able to bind | able to bind
6 | able to bind well | able to bind well | none of the six antibodies bound | 18.2-A5: recombinant monoclonal CLDN18.2 antibody, VH SEQ ID NO: 41, VL SEQ ID NO: 46 (antibody, V domains shown, 18.2-A5 VH; 18.2-A5 VL) VH: EVQLVQSGAEVKKPGASVKVSCKASGYTFTSSWVGWVRQAPGQGLEWIGNSYPSDSYTNYNQKFKDRATLTVDKSTSTAYMELSSLRSEDTAVYYCTRLGRGNSFDYWGQGTLVTVSS VL: DIVMTQSPDSLTVALGERATINCKSSQSLIHSGNQKNYLTWYQQKPGQPPKLLIYWGLSKNSGVPDRFSGSGSGTDFTLTISSLQAEDVAVYYCQNSIYYPFTFGQGTKVEIK |  |  | did not bind |  |  | 
